According to PMC1626105:

Each substance was assayed against Elongin B, expressed in Saos-2 cells (UniProt Q15370) (assay: co-immunoprecipitation (IP: myc, IB: HA) with band densitometry). Conditions: Saos-2 cells co-transfected with LANA-myc and HA-Elo.BC; parent: est. 4.0; read off a plot.
Sequence of UniProt Q15370 (Q15370 whole entry): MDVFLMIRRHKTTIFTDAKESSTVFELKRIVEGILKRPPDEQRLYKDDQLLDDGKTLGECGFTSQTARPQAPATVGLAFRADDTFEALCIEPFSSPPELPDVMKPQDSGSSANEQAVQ

Q: Which response does the source give for “KSHV latency-associated nuclear antigen (LANA), full length, myc-tagged C217G” here?
A: The response was 0.4 RD.

Q: How did the response turn out when “KSHV latency-associated nuclear antigen (LANA), full length, myc-tagged L213P; C217F” was run?
A: The response was 1.3 RD.

Q: With “KSHV latency-associated nuclear antigen (LANA), full length, myc-tagged L213G” as the substance, how does the response read?
A: The response was 0.4 RD.
